Test results published in patent US20230203471A1, “METHOD AND PLATFORM FOR DISRUPTING INTRACELLULAR MICROTUBULES” (National Tsing Hua University, priority 2021, published 2023).
Values belong to the molecule of their own block, whether it stands above or below them.

Experiments:
[1] = tested on: intracellular microtubules in HeLa cells; assay: Live-cell imaging of MT disruption (MT filament area) in transfected HeLa cells; format: cell-based
Method: The procedures of live-cell imaging are as follows. Live transfected cells cultured on poly(d-lysine)-coated glass coverslips (Hecht Assistent) were treated with either 100 nM rapamycin for rapid induction of protein dimerization and translocation or MT-targeting agents (10 µM nocodazole or 500 µM colchicine) during imaging. Live-cell imaging was conducted on a Nikon T1 inverted fluorescence microscope (Nikon) with a 60× oil objective (Nikon), a Prime camera (Photometrics), and 37° C., 5% CO2 heat stage (Live Cell Instrument). Rapid recruitment of proteins of interest (POIs) was imaged at 5- or 10-sec intervals, whereas the process of MT disruption was imaged at 1-min intervals. Images were obtained using Nikon NIS-Elements AR software and processed with Huygens Deconvolution Software (Scientific Volume Imaging). Image analysis was mainly performed with Nikon NIS-Elements AR software.
The procedures of measurement of MT filament area are as follows. The MT filaments in living cells were labeled with EMTB-CFP-FRB and imaged in real time (RAW image). The rolling ball correction was used to remove the cytosol background from the RAW images, which was carried out with the Nikon NIS-Elements AR software. Images were processed to generate the binary MT filament pattern via the Otsu threshold and analyzed by Fiji software.
FIGS. 2D and 2E show rapidly recruiting engineered spastins onto MTs. […] The top three layers are cells that simultaneously express EMTB-CFP-FRB and dNSpastin3Q-YFP-FKBP. The lower three layers are cells that simultaneously express EMTB-CFP-FRB and dNSpastin-YFP-FKBP-C2Lact. The color bar on the right indicates the brightness value represented by the color of the FRET signal. […] Data are shown as the mean ± S.E.M. It was noteworthy that MT disruption triggered by dNSpastin3Q-YFP-FKBP upon rapamycin treatment (T½ = 11.05 ± 1.52 min) was much faster than that of dNSpastin-YFP-FKBP-C2Lact upon rapamycin treatment (T½ = 53.08 ± 8.08 min), and treatment of two common MTAs, nocodazole (10 µM; T½ = 54.02 ± 10.29 min), colchicine (500 µM; T½ = 94.28 ± 8.63 min; see FIGS. 2F to 2J). […] In FIG. 2H, HeLa cells transfected with the indicated constructs were treated with nocodazole (Noc)([…], a type of MTA), colchicine (Col)(500 µM, a type of MTA), or rapamycin (Rapa)(100 nM); scale bar, 10 µm. […] Data are shown as the mean ± S.E.M. Student’s t-tests were performed, with the resulting p-values indicated.

[2] = target: MT-binding domain of ensconsin-cyan fluorescent protein-FKBP-rapamycin binding domain (EMTB-CFP-FRB) (Artificial Sequence); assay: FRET live-cell imaging in co-transfected HeLa cells, 100 nM rapamycin
Chain of MT-binding domain of ensconsin-cyan fluorescent protein-FKBP-rapamycin binding domain (EMTB-CFP-FRB) (Artificial Sequence) (chain, as listed by the source): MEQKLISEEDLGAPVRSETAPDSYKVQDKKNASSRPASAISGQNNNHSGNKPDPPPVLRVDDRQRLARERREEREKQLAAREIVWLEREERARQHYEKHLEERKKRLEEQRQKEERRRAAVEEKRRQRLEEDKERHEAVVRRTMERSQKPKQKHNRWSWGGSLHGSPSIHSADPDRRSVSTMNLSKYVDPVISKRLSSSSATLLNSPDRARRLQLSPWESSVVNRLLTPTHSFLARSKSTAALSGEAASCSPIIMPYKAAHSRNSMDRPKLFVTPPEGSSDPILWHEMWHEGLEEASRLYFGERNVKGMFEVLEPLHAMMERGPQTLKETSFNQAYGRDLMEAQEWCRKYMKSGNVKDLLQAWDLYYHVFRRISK

[3] = target: intracellular microtubules (MTs)
[4] = tested on: cytosolic MTs in HeLa cells; assay: Immunofluorescence staining of α-tubulin in HeLa cells expressing spastin constructs; format: cell-based; conditions: expression in HeLa cells, α-tubulin intensity
Method: The procedures of immunofluorescence staining are as follows. Cells cultured in borosilicate glass Lab-Tek eight-well chambers (Nunc) were fixed in 4% paraformaldehyde (Electron Microscopy Sciences) at room temperature for 15 min. Fixed cells were permeabilized with 0.1% Triton X-100 and then incubated in blocking solution (phosphate-buffered saline with 2% bovine serum albumin) for 30 min at room temperature. To label cytosolic MTs, primary ciliary membrane, and axonemal MTs, cells were incubated for 1 hr at room temperature with mouse antibody against α-tubulin (1:500; Sigma Aldrich, T6199), rabbit antibody against Arl13b (1:500; Proteintech, 17711-1-AP), mouse antibody against glutamylated tubulin (1:100; Adipogen, AG-20B-0020-C100), mouse antibody against acetylated tubulin (1:500; Sigma Aldrich, T7451), rat antibody against tyrosinated tubulin (1:100; Sigma Aldrich, MAB1864), and mouse antibody against detyrosinated tubulin (1:100; MERCK, AB3201) each of which was diluted in blocking solution. Cells were then washed with PBS and incubated for 1 hr with appropriate secondary antibodies (1:1000 dilution; Thermo Fisher) at room temperature.
Spastin is a MT-cleaving enzyme that is ubiquitous in nearly all eukaryotic cells. Expression of full-length spastin (SpastinFL-YFP; the amino acid sequence of spastin is SEQ ID NO: 1) and truncated spastin without the N-terminal 1-140 amino acids (dNSpastin-YFP) in HeLa cells removed significant amounts of cytosolic MTs, 47.45% and 42.86%, respectively, relative to YFP-transfected control cells (See FIGS. 2A to 2C). This means that both full-length spastin and truncated spastin without N-terminal 1-140 amino acids have the effect on disrupting microtubules. FIGS. 2A to 2C show the microtubule cleavage activity of artificially engineered spastin enzyme. […] The dotted line on the right indicates the periphery of the cell that expresses spastin. […] SpastinFL expressed in cells can disrupt the intracellular microtubules. Making SpastinFL be located in the cytosol, truncated spastin would also disrupt the intracellular microtubules, so it would also be located in the cytosol. […] The truncated spastin is used in the subsequent experiments. […] Compared with the YFP control group, both SpastinFL-YFP and dNSpastrin-YFP can disrupt about 40% of the microtubules. Thus the N-terminal fragment (1-140 amino acids) was dispensable for Spastin-mediated MT severing. […]

[5] = tested on: EMTB-YFP-CIBN-labeled MTs in COS7 cells; assay: Blue-light-induced recruitment of Cry2 proteins onto EMTB-YFP-CIBN-labeled MTs and MT disassembly; format: cell-based, African green monkey
Method: The procedures of photostimulation are as follows. COS7 cells were plated on poly(d-lysine)-coated coverslips and cultured in six-well plates (Thermo Scientific) for 48 hr. Before imaging, cells were incubated with SPY650-tubulin (1000-fold dilution; Spirochrome) at 37° C. for 1 hr. Local photostimulation was carried out with a fluorescence microscope (Nikon) equipped with a digital micromirror device, polygon 400 (MIGHTEX), and a 488-nm light source. Cells were illuminated with the blue light (5 sec on/1 sec off; 1.6 nW/µm^2) for the indicated duration. The mCherry and SPY650-tubulin were simultaneously imaged during photostimulation using Nikon element AR software.
The inventors next tried to use an optogenetic system to trigger MT disassembly in a sub-cellular region of interest during a specific period of time. Cryptochrome 2 (Cry2) (SEQ ID NO:14) and CIBN (N-terminal 170 amino acids of CIB1) (SEQ ID NO:15), two blue light-sensitive dimerizing partners, were used in our MT-manipulating system. Cry2, which was tagged with the red fluorescent protein mCherry (mCh—Cry2), was rapidly translocated onto EMTB—YFP—CIBN-labeled MTs only in regions illuminated with light (T½ = 34.6 ± 7.58 sec) and dissociated from MTs to the cytosol when the light was off (T½ = 28.2 ± 4.88 sec; see FIGS. 6A and 6B).
FIGS. 6A and 6B show using light to disassemble MTs in a reversible and location-specific manner. In FIG. 6A, COS7 cells co-transfected with EMTB—YFP—CIBN and mCh—Cry2 (red) were incubated with SPY650-tubulin (SPY650-tub) to visualize MTs; the cells were illuminated by blue light within a specified region (indicated by the dotted circle) for the indicated time period; scale bar, 10 µm.
The inventors then used light to control spastin-mediated MT disassembly in a spatially and temporally specific manner. dNSpastin3Q tagged with mCh-Cry2 was co-expressed with EMTB—YFP—CIBN in COS7 cells. MTs were labeled with SPY650-tubulin in these experiments.
FIGS. 6C and 6D show using light to disassemble MTs in a reversible and location-specific manner. In FIG. 6C, COS7 cells co-transfected with EMTB-YFP-CIBN and dNSpastin3Q-mCh—Cry2 were incubated with SPY650-tubulin to visualize MTs; the cells were illuminated by blue light as in FIG. 6A; scale bar, 10 µm. […] Data are shown as the mean ± S.E.M.

Molecule: COc1cc2c(c(OC)c1OC)-c1ccc(OC)c(=O)cc1[C@@H](NC(C)=O)CC2 [colchicine]
- microtubules removed within one hour ([1]; 500 µM colchicine): 49%
- time required to disrupt half of the intracellular microtubules ([1]; colchicine 500 µM): 94.28 ± 8.63 min
- T½ of MT disruption ([1]; colchicine 500 µM, HeLa cells): 1.571 ± 0.144 h

B2: YFP-tagged full-length spastin (SpastinFL-YFP) (enzyme)
chain: MAAKRSSGTAPAPASPSPPAPGPGGEAESVRVFHKQAFEYISIALRIDEEEKGQKEQAVEWYKKGIEELEKGIAVIVTGQGEQYERARRLQAKMMTNLVMAKDRLQLLEKLQPVLQFSKSQTDVYNESTNLTCRNGHLQSESGAVPKRKDPLTHASNSLPRSKTVLKSGSAGLSGHHRAPSCSGLSMVSGARPGPGPAATTHKGTPKPNRTNKPSTPTTAVRKKKDLKNFRNVDSNLANLIMNEIVDNGTAVKFDDIAGQELAKQALQEIVILPSLRPELFTGLRAPARGLLLFGPPGNGKTMLAKAVAAESNATFFNISAASLTSKYVGEGEKLVRALFAVARELQPSIIFIDEVDSLLCERREGEHDASRRLKTEFLIEFDGVQSAGDDRVLVMGATNRPQELDEAVLRRFIKRVYVSLPNEETRLLLLKNLLCKQGSPLTQKELAQLARMTDGYSGSDLTALAKDAALGPIRELKPEQVKNMSASEMRNIRLSDFTESLKKIKRSVSPQTLEAYIRWNKDFGDTTV
- removal of cytosolic MTs (normalized intensity of α-tubulin) [3]: 47.5%

B3: dNSpastin3Q-mCh—Cry2: dNSpastin3Q tagged with mCh-Cry2 (protein)
chain: MESGAVPKRKDPLTHASNSLPRSKTVLKSGSAGLSGHHRAPSCSGLSMVSGARPGPGPAATTHKGTPKPNRTNKPSTPTTAVRQQQDLKNFRNVDSNLANLIMNEIVDNGTAVKFDDIAGQELAKQALQEIVILPSLRPELFTGLRAPARGLLLFGPPGNGKTMLAKAVAAESNATFFNISAASLTSKYVGEGEKLVRALFAVARELQPSIIFIDEVDSLLCERREGEHDASRRLKTEFLIEFDGVQSAGDDRVLVMGATNRPQELDEAVLRRFIKRVYVSLPNEETRLLLLKNLLCKQGSPLTQKELAQLARMTDGYSGSDLTALAKDAALGPIRELKPEQVKNMSASEMRNIRLSDFTESLKKIKRSVSPQTLEAYIRWNKDFGDTTVMKMDKKTIVWFRRDLRIEDNPALAAAAHEGSVFPVFIWCPEEEGQFYPGRASRWWMKQSLAHLSQSLKALGSDLTLIKTHNTISAILDCIRVTGATKVVFNHLYDPVSLVRDHTVKEKLVERGISVQSYNGDLLYEPWEIYCEKGKPFTSFNSYWKKCLDMSIESVMLPPPWRLMPITAAAEAIWACSIEELGLENEAEKPSNALLTRAWSPGWSNADKLLNEFIEKQLIDYAKNSKKVVGNSTSLLSPYLHFGEISVRHVFQCARMKQIIWARDKNSEGEESADLFLRGIGLREYSRYICFNFPFTHEQSLLSHLRFFPWDADVDKFKAWRQGRTGYPLVDAGMRELRATGWMHNRIRVIVSSFAVKFLLLPWKWGMKYFWDTLLDADLECDILGWQYISGSIPDGHELDRLDNPALQGAKYDPEGEYIRQWLPELARLPTEWIHHPWDAPLTVLKASGVELGTNYAKPIVDIDTARELLAKAISRTREAQIMIGAA
- reversibility in the dark ([5]; COS7 cells placed back in the dark): MT reassembly occurred
- light-induced MT disassembly ([5]; COS7 cells, local blue light illumination, SPY650-tubulin): disassembly of MTs only in illuminated regions

The next lines start with results.

- T½ of translocation [2]: 5.73 s
Molecule: yellow fluorescent protein-tagged FKBP (YFP-FKBP)

- removal of cytosolic MTs (normalized intensity of α-tubulin) [3]: 42.9%
B1: YFP-tagged truncated spastin without the N-terminal 1-140 amino acids (dNSpastin-YFP) (enzyme)
chain: MESGAVPKRKDPLTHASNSLPRSKTVLKSGSAGLSGHHRAPSCSGLSMVSGARPGPGPAATTHKGTPKPNRTNKPSTPTTAVRKKKDLKNFRNVDSNLANLIMNEIVDNGTAVKFDDIAGQELAKQALQEIVILPSLRPELFTGLRAPARGLLLFGPPGNGKTMLAKAVAAESNATFFNISAASLTSKYVGEGEKLVRALFAVARELQPSIIFIDEVDSLLCERREGEHDASRRLKTEFLIEFDGVQSAGDDRVLVMGATNRPQELDEAVLRRFIKRVYVSLPNEETRLLLLKNLLCKQGSPLTQKELAQLARMTDGYSGSDLTALAKDAALGPIRELKPEQVKNMSASEMRNIRLSDFTESLKKIKRSVSPQTLEAYIRWNKDFGDTTV
- cytosolic MTs removed relative to YFP-transfected control cells [4]: 42.86%
- cytosolic MTs removed relative to YFP-transfected control cells ([4]; listed as dNSpastrin-YFP): about 40%
